These results are taken from US20240002434A1 (ICHNOS SCIENCES, published 2024).

Assay [1] has as its target T1, Human EGFR-his (human, UniProt P00533 25-645).
T1 construct: Soluble his-tagged antigen injected as analyte in SPR; also called hsEGFR; not shown: his tag
Put plainly: SPR, BEAT®3 captured on Protein G chip, EGFR-his as analyte; sample held at pH 11.2 for 0 h.

The target of assay [2] is T1, Human EGFR-his. Put plainly: SPR, BEAT®3 captured on Protein G chip, EGFR-his as analyte; sample held at pH 11.2 for 4 h; mean of 2.
In assay [3] the target is T1, Human EGFR-his. Put plainly: SPR, BEAT®3 captured on Protein G chip, EGFR-his as analyte; sample held at pH 11.2 for 0 h; mean of 2.
Assay [4] addresses T1, Human EGFR-his. Put plainly: SPR, BEAT®3 captured on Protein G chip, EGFR-his as analyte; sample held at pH 11.2 for 4 h.
The target of assay [5] is T1, Human EGFR-his. Put plainly: SPR, BEAT®3 captured on Protein G chip, EGFR-his as analyte; sample held at pH 11.2 for 2 h; mean of 2.
For assay [6], the target named is T1, Human EGFR-his. Put plainly: SPR, BEAT®3 captured on Protein G chip, EGFR-his as analyte; sample held at pH 11.2 for 24 h.
In assay [7] the target is T1, Human EGFR-his. Put plainly: SPR, BEAT®3 captured on Protein G chip, EGFR-his as analyte; sample held at pH 11.2 for 24 h; mean of 2.
Assay [8] addresses T1, Human EGFR-his. Put plainly: SPR, BEAT®3 sample captured on Protein G chip, EGFR-his as analyte; mean of 4 reference replicates.
For assay [9], the target named is T1, Human EGFR-his. Put plainly: SPR, BEAT®3 captured on Protein G chip, EGFR-his as analyte; sample held at pH 11.2 for 2 h.
Assay [10] concerns the target EGFR on SK-BR-3 target cells (UniProt P00533 25-1210, limits assumed). Put plainly: cell-based or functional assay.
Assay [11] addresses CD3ε on Jurkat-NFAT responder cells (UniProt P07766 23-207). Put plainly: cell-based or functional assay.
For assay [12], the target named is T2, human CD38 (human, UniProt P28907 43-300, limits assumed).
T2 construct: also called hsCD38; cluster of differentiation 38
Put plainly: binding affinity assay; sample after 0.8M Arg, pH 5.5, against RS.

Assay [13] concerns the target T2, human CD38. Put plainly: binding affinity assay; sample after S/D treatment, against RS.
The target in assay [14] is T2, human CD38. Put plainly: binding affinity assay; sample after 0.8M Arg, pH 5.5.
The target in assay [15] is T2, human CD38. Put plainly: surface plasmon resonance; mean KD; high pH hold time 1 h.
Assay [16] deals with T2, human CD38. Put plainly: binding affinity assay; reference sample, no treatment.
Assay [17] deals with T2, human CD38. Put plainly: binding affinity assay; sample after 0.8M Arg, pH 4.0, against RS.
Assay [18] concerns the target T2, human CD38. Put plainly: surface plasmon resonance; mean KD; high pH hold time 0 h.
Assay [19] deals with T2, human CD38. Put plainly: binding affinity assay; sample after high pH treatment, against RS.
Assay [20] concerns the target T2, human CD38. Put plainly: binding affinity assay; sample after 0.8M Arg, pH 4.0.
The target in assay [21] is T2, human CD38. Put plainly: binding affinity assay; sample after S/D treatment.
Assay [22] concerns the target T2, human CD38. Put plainly: surface plasmon resonance; mean KD; PA eluate without high pH treatment.
Assay [23] addresses T2, human CD38. Put plainly: surface plasmon resonance; mean KD; high pH hold time 2 h.
Assay [24] concerns the target T2, human CD38. Put plainly: binding affinity assay; sample after high pH treatment.
Assay [25] addresses T3, human FcγR3a (human, UniProt P08637 17-208, limits assumed).
T3 construct: The construct and allotype (V158/F158) used in the Biacore assay are not described; also called FcgR3a
Put plainly: SPR (Biacore), mean KD; Ab1 after 2 h at pH 11.2.

Assay [26] concerns the target T4, human OX40 (human, UniProt P43489 29-214, limits assumed).
T4 construct: The construct used in the Biacore assay is not described; also called OX40R; OX40 receptor
T4 sequence (looked up): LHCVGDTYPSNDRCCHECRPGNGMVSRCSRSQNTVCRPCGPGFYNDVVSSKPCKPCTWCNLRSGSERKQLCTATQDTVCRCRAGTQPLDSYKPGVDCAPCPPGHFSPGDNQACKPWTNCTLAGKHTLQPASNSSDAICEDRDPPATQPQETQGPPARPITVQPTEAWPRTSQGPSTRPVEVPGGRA
Put plainly: SPR (Biacore), mean KD; Ab1 after 2 h at pH 11.2.

Assay [27] concerns the target T3, human FcγR3a. Put plainly: SPR (Biacore), mean KD; Ab1 brought to pH 11.2 and neutralized at once (t0).
The target in assay [28] is T4, human OX40. Described as above.
Assay [29] has as its target T3, human FcγR3a. Put plainly: SPR (Biacore), mean KD; Ab1 after 1 h at pH 11.2.
The target of assay [30] is T4, human OX40. Put plainly: SPR (Biacore), mean KD; Ab1 after 1 h at pH 11.2.
The target of assay [31] is T3, human FcγR3a. Put plainly: SPR (Biacore), mean KD; Ab1 protein A eluate without high pH treatment (reference).
For assay [32], the target named is T4, human OX40. Described as above.

“And” between values parts separate entries of the source, which are not always exact repeats. Identical values can stand only once.

T3 sequence (P08637 17-208 limits assumed): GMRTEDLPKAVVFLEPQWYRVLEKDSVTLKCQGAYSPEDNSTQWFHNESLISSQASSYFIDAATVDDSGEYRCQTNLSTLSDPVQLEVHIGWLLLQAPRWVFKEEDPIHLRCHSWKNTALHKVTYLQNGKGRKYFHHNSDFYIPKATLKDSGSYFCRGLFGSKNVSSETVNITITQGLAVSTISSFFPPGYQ
CD3ε on Jurkat-NFAT responder cells, sequence (P07766 23-207): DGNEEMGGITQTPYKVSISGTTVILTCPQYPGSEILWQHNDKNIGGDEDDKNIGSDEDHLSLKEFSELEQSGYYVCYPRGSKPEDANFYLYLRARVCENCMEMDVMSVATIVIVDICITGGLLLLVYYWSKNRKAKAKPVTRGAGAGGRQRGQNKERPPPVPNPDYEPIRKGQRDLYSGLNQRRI

B1: BEAT®3 (bispecific antibody, human IgG1, kappa, L234A L235A)
chain 1: EVQLVESGGGLVQPGGSLRLSCAASGFTFNTYAMNWVRQAPGKGLEWVARIRSKYNNYATYYADSVKSRFTISRDDSKNTLYLQMNSLRAEDTAVYYCVRHGNFGNSYVSYFAYWGQGTTVTVSSGGGGSGGGGSGGGGSEIVVTQSPATLSVSPGERATLSCRSSTGAVTESNYANWVQEKPGQAFRGLIGGANKRAPGVPARFSGSLSGDEATLTISSLQSEDFAVYYCALFYSNTWVFGQGTKLEIKGGGGTQVQLQESGPGLVKPSETLSLTCTVSGGSVSSGDYYWTWIRQSPGKGLEWIGHIYYSGNTNYNPSLKSRLTISIDTSKTQFSLKLSSVTAADTAIYYCVRDRVTGAFDIWGQGTMVTVSSASTKGPSVFPLAPSSKSTSGGTAALGCLVKDYFPEPVTVSWNSGALTSGVHTFPAVLQSSGLYSLSSVVTVPSSSLGTQTYICNVNHKPSNTKVDKKVEPKSCDKTHTCPPCPAPEAAGGPSVFLFPPKPKDTLMISRTPEVTCVVVDVSHEDPEVQFKWYVDGVEVHNAKTKPREEQYNSTFRVVSVLTVLHQDWLNGKEYKCKVSNKALPAPIEKTISKTKGQPREPAVYTLPPSREEMTKNQVKLVCLVTGFYPSDIAVEWESSGQPENNYYTTPPMLDSDGSFSLVSWLNVDKSRWQQGNIFSCSVMHEALHNRFTQKSLSLSPG
chain 2: not shown
chain 3: DKTHTCPPCPAPEAAGGPSVFLFPPKPKDTLMISRTPEVTCVVVDVSHEDPEVKFNWYVDGVEVHNAKTKPREEQYNSTYRVVSVLTVLHQDWLNGKEYKCKVSNKALPAPIEKTISKAKGQPREPEVATFPPSRDELTKNQVTLVCLVTGFYPSDIAVEWESNGQPENNYKTDPPLLESDGSFALSSRLRVDKSRWQQGNVFSCSVMHEALHNHYTQKSLSLSPG
As to B1, the “Relative KD R1” value was 0.988 ratio to reference in the assay with Human EGFR-his [1], 1.11 ratio to reference with Human EGFR-his [4], 1.17 ratio to reference with Human EGFR-his [6] and 1.02 ratio to reference with Human EGFR-his [9]. Moreover, the “Average rel KD” value with Human EGFR-his [2] was 1.09 ratio to reference; with Human EGFR-his [3], 0.98 ratio to reference; with Human EGFR-his [5], 1.02 ratio to reference; with Human EGFR-his [7], 1.15 ratio to reference; with Human EGFR-his [8], 1 ratio to reference. In addition, the “Relative potency (%) (Jurkat-NFAT luciferase reporter, EC50reference/EC50sample x 100, reference High pH t0)” value in [10] was 97% and 85% and 67%; in assay [11] it was 97% and 85% and 67%.

B2: BEAT®2 (bispecific antibody, human IgG1, kappa, L234A L235A)
chain 1: not shown
chain 2: QVTLKESGPTLVKPTQTLTLTCTFSGLSLSTSGKGVGWIRQPPGKALEWLAHIWWDDDKRYNPALKSRLTITKDTSKNQVVLTMTNMDPVDTATYYCARIELGRSYVMDYWGQGTLVTVSSASTKGPSVFPLAPSSKSTSGGTAALGCLVKDYFPEPVTVSWNSGALTSGVHTFPAVLQSSGLYSLSSVVTVPSSSLGTQTYICNVNHKPSNTKVDKKVEPKSCDKTHTCPPCPAPEAAGGPSVFLFPPKPKDTLMISRTPEVTCVVVDVSHEDPEVQFKWYVDGVEVHNAKTKPREEQYNSTFRVVSVLTVLHQDWLNGKEYKCKVSNKALPAPIEKTISKTKGQPREPAVYTLPPSREEMTKNQVKLVCLVTGFYPSDIAVEWESSGQPENNYYTTPPMLDSDGSFSLVSWLNVDKSRWQQGNIFSCSVMHEALHNRFTQKSLSLSPG
chain 3: not shown
B2: the “% deviation EC50” value with human CD38 [12] was 0.7%; in the assay with human CD38 [13], -15.4%; in the assay with human CD38 [16] it was 0%; with human CD38 [17], 3.5%; with human CD38 [19], 1.7%. Besides, the Kd with human CD38 [14] amounted to 0.439 nM; with human CD38 [15], 0.547 nM; in the assay with human CD38 [16] it was 0.442 nM; with human CD38 [18] it was 0.504 nM; in the assay with human CD38 [20] it was 0.507 nM; with human CD38 [21] it was 0.341 nM. Besides, the Kd with human CD38 [22] amounted to 0.483 nM; in the assay with human CD38 [23], 0.485 nM; in the assay with human CD38 [24], 0.467 nM. The dissociation rate constant (koff) with human CD38 [14] was 0.000459 s⁻¹; with human CD38 [16], 0.000457 s⁻¹; in the assay with human CD38 [20], 0.000521 s⁻¹; with human CD38 [21] it was 0.000376 s⁻¹; with human CD38 [24], 0.000483 s⁻¹. Besides, the kon is 1.05e+06 M⁻¹ s⁻¹ with human CD38 [14]; 1.03e+06 M⁻¹ s⁻¹ with human CD38 [16]; 1.03e+06 M⁻¹ s⁻¹ with human CD38 [20]; 1.11e+06 M⁻¹ s⁻¹ with human CD38 [21]; 1.04e+06 M⁻¹ s⁻¹ with human CD38 [24].

B3: Ab1 (antibody, human IgG1, kappa)
chain 1: not shown
chain 2: EIVLTQSPATLSLSPGERATLSCRASSSVSYMHWYQQKPGQAPRPWIYATSNRATGIPARFSGSGSGTDYTLTISSLEPEDFAVYYCQQWSSNPWTFGQGTKVEIKRTVAAPSVFIFPPSDEQLKSGTASVVCLLNNFYPREAKVQWKVDNALQSGNSQESVTEQDSKDSTYSLSSTLTLSKADYEKHKVYACEVTHQGLSSPVTKSFNRGEC
notes: The samples PA eluate, t0, t1 and t2 are the same antibody before and after incubation at pH 11.2 for 0, 1 and 2 h; also called humanized IgG1; PA eluate
B3: the Kd with human FcγR3a [25] worked out at 638 nM; with human OX40 [26] it was 224 nM; in the assay with human FcγR3a [27], 760 nM; in the assay with human OX40 [28], 229 nM; with human FcγR3a [29] it was 744 nM; with human OX40 [30], 207 nM. Moreover, the Kd was determined as 689 nM with human FcγR3a [31] and 198 nM in the assay with human OX40 [32].
